Tests used:
[1] = target: GST-tagged IGF2BP2 (human), Q9Y6M1; experiment: cross-linking; cell suspension with 1.25 mM DSS, 30 min, 37 °C; nondenaturing lysis and PAGE, Western blot; monomer 65 kDa, homodimer 130 kDa; HEK293T (GST-IGF2BP2) and OVCAR3/CAOV3 (endogenous, with Ct-OATP1B3 or IGF2BP2 knockdown or overexpression); conditions: remark: other sources report otherwise
[2] = target: insulin-like growth factor 2 mRNA-binding protein 2 (IGF2BP2), endogenous (human (endogenous in CAOV3 and OVCAR3)), Q9Y6M1; experiment: as above; conditions: remark: other sources report otherwise

| stoichiometry N [1] | stoichiometry N [2] | Binder |
| --- | --- | --- |
| 2 |  | GST-tagged IGF2BP2, Q9Y6M1 1-599 (natural protein) MMNKLYIGNLSPAVTADDLRQLFGDRKLPLAGQVLLKSGYAFVDYPDQNWAIRAIETLSGKVELHGKIMEVDYSVSKKLRSRKIQIRNIPPHLQWEVLDGLLAQYGTVENVEQVNTDTETAVVNVTYATREEAKIAMEKLSGHQFENYSFKISYIPDEEVSSPSPPQRAQRGDHSSREQGHAPGGTSQARQIDFPLRILVPTQFVGAIIGKEGLTIKNITKQTQSRVDIHRKENSGAAEKPVTIHATPEGTSEACRMILEIMQKEADETKLAEEIPLKILAHNGLVGRLIGKEGRNLKKIEHETGTKITISSLQDLSIYNPERTITVKGTVEACASAEIEIMKKLREAFENDMLAVNQQANLIPGLNLSALGIFSTGLSVLSPPAGPRGAPPAAPYHPFTTHSGYFSSLYPHHQFGPFPHHHSYPEQEIVNLFIPTQAVGAIIGKKGAHIKQLARFAGASIKIAPAEGPDVSERMVIITGPPEAQFKAQGRIFGKLKEENFFNPKEEVKLEAHIRVPSSTAGRVIGKGGKTVNELQNLTSAEVIVPRDQTPDENEEVIVRIIGHFFASQTAQRKIREIVQQVKQQEQKYPQGVASQRSK |
|  | 2 | insulin-like growth factor 2 mRNA-binding protein 2 (IGF2BP2), endogenous, Q9Y6M1 1-599 (natural protein) MMNKLYIGNLSPAVTADDLRQLFGDRKLPLAGQVLLKSGYAFVDYPDQNWAIRAIETLSGKVELHGKIMEVDYSVSKKLRSRKIQIRNIPPHLQWEVLDGLLAQYGTVENVEQVNTDTETAVVNVTYATREEAKIAMEKLSGHQFENYSFKISYIPDEEVSSPSPPQRAQRGDHSSREQGHAPGGTSQARQIDFPLRILVPTQFVGAIIGKEGLTIKNITKQTQSRVDIHRKENSGAAEKPVTIHATPEGTSEACRMILEIMQKEADETKLAEEIPLKILAHNGLVGRLIGKEGRNLKKIEHETGTKITISSLQDLSIYNPERTITVKGTVEACASAEIEIMKKLREAFENDMLAVNQQANLIPGLNLSALGIFSTGLSVLSPPAGPRGAPPAAPYHPFTTHSGYFSSLYPHHQFGPFPHHHSYPEQEIVNLFIPTQAVGAIIGKKGAHIKQLARFAGASIKIAPAEGPDVSERMVIITGPPEAQFKAQGRIFGKLKEENFFNPKEEVKLEAHIRVPSSTAGRVIGKGGKTVNELQNLTSAEVIVPRDQTPDENEEVIVRIIGHFFASQTAQRKIREIVQQVKQQEQKYPQGVASQRSK |

— publication PMC9206684
